We go through 16 sequences from the nanobody polyreactivity screen of Harvey et al. (2022).

The nature of this series: yeast display, Sf9 membrane polyspecificity reagent, FACS + sequencing; frameworks hold sequencing errors. In outline: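 After 36–48 hours of galactose induction, yeast (Saccharomyces cerevisiae BJ5465) displaying a synthetic nanobody library were stained at 4 °C for 1 hour with 10% biotinylated, detergent-solubilized Sf9 membrane reagent. Streptavidin microbeads enriched the stained cells before FACS sorting into low and high (top ~1%) gates on anti-HA and streptavidin fluorescence. Each clone's polyreactivity label reflects its gate of origin.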
In the case of “QVQLVDSGGGLVQAGGSLRLSCAASGSTSLKNAMGWSRQAPGKERELVAAISSGGSTYYADSVKGRFTISRDNAKNTVYLLMNSLKPEDTAVYYCAAKYLRGLGYWGQGTQVTVSS”, the “polyreactivity (PSR sort gate)” value is “high polyreactivity”.

With “QVQLVDSGGGLVQAGGSLRLSCAASGSTVAYYAMGLYRQPTVKERELVAAITRGGSTYYADSVKGRFTISRDNAMNTVYLHLNSLKPEDTAVYYCSAEFVVQYYVYGYTLGYDYWGQGTQVTVSS”, the “polyreactivity (PSR sort gate)” value is “high polyreactivity”. Then “QVQLVDSGGGLVQAGGSLRLSCAASGYTFDWYNRGWYRQAPGKERELVAAISASGVRTYYADSVKGRFTISRDNAKNTVYFQMNSLKPEDTAVYYCNRVYSTSRITQYEFDYWGQGTQVTVSS”, with “low polyreactivity”. Turning to “QVQLVDSGGGLVQAGGSLRLSCAASGYTFEIYAIRWYRQAPGKERELVAAITRSGDSTYYADSVKGRFTISRDNSKNTVYLQMNSLKPEDTAVYDCNADYPGQYDSWGQGTQVTVSS”, the “polyreactivity (PSR sort gate)” value is given as “low polyreactivity”. For “QVQLVDSGGGLVQAGGSLRLSCASSGNTFAGNARGWYRQAPGTERELVAAISRSGVTTRYADSVKGRFTISRDNAKNTVYLQMNSLKQEDTAVYYCNADPRLRQTRDYWGHGTQVTVSS”, the “polyreactivity (PSR sort gate)” value is “high polyreactivity”.

With “QVQLVDSGGGLVQAGGSLRLSCASSGSTFVLYAMGWYRQAPGKERELVAAITWSGDDTYYADSVKGRFTISRDNAKNTVYLQMNSLKPEDTAVYYCAAAYADWGQGTQVTVSS”, the “polyreactivity (PSR sort gate)” value was “low polyreactivity”.

For the sequence “QVQLVDSGGGLVQAGGSLRLSCASSGSTTVLYAKGWYRQAPGKEREMVAAISRSGGSTYYADSVKGRFTISRDNAKYTVYLQMNSLKPEDTAVYYCAARVPFSPYLRLFDYWGQGTQVTVSS”, the “polyreactivity (PSR sort gate)” value is “low polyreactivity”. For “QVQLVDSGGGLVQAGGSLRLSCATSGYTFKAYAMVWYRQAPGKERELVAGISRSGGSTYYADSVKGRFTISRDNAKNTVYLQINSLKPEDTAVYYCAADSFSCETVVPSVLEFDYWGQGTQVTLSS”, the “polyreactivity (PSR sort gate)” value is on record as “low polyreactivity”. Regarding “QVQLVDSGGGLVQAGGSLRLSCDASGSILAQYAMGWYRQAPGKEREFVAAISRRGVRTNYADSVKGRFTISRDNAKNTDYLQMNSLKHEDTAVYYCAAALYTPSLNSAFDYWGQGTQVTVSS”, the “polyreactivity (PSR sort gate)” value is recorded as “high polyreactivity”. For the sequence “QVQLVDSGGGLVQAGGSLRLSCGASGRIFPYNAMGWYRQAPGKERELVAAINWSGGSTYYADSVKGRFTISRDTAKNTVYLQMNSLKPEDTAVYYCAVKTVRSSSRNYWRQGTQVTVSS”, the “polyreactivity (PSR sort gate)” value is given as “high polyreactivity”. With “QVQLVDSGGGLVQAGGSLRLSCHASGRIVTSNAMGWYRQAPGKERELVAAISWSGGSTYYADSVKGRFTISRDNAKNTVYLQINSLKPEDTAVYYCAAYGTKWGRGFYITGYGYWGQGTQVTVSS”, the “polyreactivity (PSR sort gate)” value is “low polyreactivity”. With “QVQLVDSGGGLVQAGGSLRLSCSASGYIFYANTMGWYRQAPGKEREFVATISWIGSTYYADSVKGRFTISRDNAKNTVYLQMNSLKPEDTAVYYCNARYTYRRYGRYDYWGQGTQVTVSS”, the “polyreactivity (PSR sort gate)” value is listed as “high polyreactivity”. As to “QVQLVDSGGGLVQAGGSLRLSFAASGRIFAGYAMGWYRQAPGKERELVASIRYSGGSTYADSVKGRFTISRDNAKKTVYLQMNSLKPEDTAVYYSADGVQSVYNGEPGIILEFDYWGQGTQVTVSS”, the “polyreactivity (PSR sort gate)” value is recorded as “low polyreactivity”. As to “QVQLVDSGGGLVQAGGSLRLTCAASARTFHYYAMGWYREAPGKERELVAAITSSGGSTYADSVKGRFTISRDNAKNTVYLQMNSLKPEDTAVYYCARDRYDNPYDQELDYWGQGTQVTVSS”, the “polyreactivity (PSR sort gate)” value was “low polyreactivity”. Then “QVQLVDSGGGLVQAGGSLRLTCAASGFIFGYNTMGWYRQAPGKERELVAAIDSGGSTNYADSVKGRFTISRDNAKNTDYLQMNSLKPEDTAVYYCARESDWWREFPYDYWGQGTQVNVSS”, with “low polyreactivity”; and “QVQLVDSGGGLVQAGGSLRLTCAASGGIFKRYAMGWYRQAPGKERELVAAISGRGGGTYYADSVKGRFTISRDNAKNTVYLQMNSLKPEDTAVYYCNARLSWSAFGYWGQGTQVTVSS”, with “high polyreactivity”.
